In data set [1] the test system is HeLa Kyoto. The data set is described as follows: solubility in G1/S (NP-40 vs SDS abundance) (log2 ratio); higher = more soluble. Conditions: cell cycle stage: G1/S.
Data set [2] deals with HeLa Kyoto. The data set can be described thus: solubility change mitosis vs G1/S (difference of NP-40 vs SDS log2 ratios) (log2 ratio difference); higher = more soluble in mitosis.
In data set [3] the test system is HeLa Kyoto. The data set can be described thus: melting temperature (median over replicates), in situ; higher = more thermally stable.
The subject of data set [4] is HeLa Kyoto. The data set is described as follows: thermal stability score vs G1/S (z-score of summed log2 fold changes over temperatures); higher = more thermally stable than in G1/S.
The mark [5] stands for this setting: cell cycle stage: early G1 (4.5 h after nocodazole release).

6 substances from the supplement of paper PMC5998384 can be followed below.
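Wherever melting temperature (median over replicates), in situ is given: HeLa Kyoto cells synchronized by double thymidine or nocodazole block, proteins quantified by TMT10plex mass spectrometry, three independent biological replicates.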
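Wherever solubility change mitosis vs G1/S (difference of NP-40 vs SDS log2 ratios) is given: synchronized HeLa Kyoto cells (double thymidine block for G1/S, nocodazole release for mitosis), protein amounts in NP-40 versus SDS lysates quantified by mass spectrometry, three biological replicates.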
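Wherever solubility in G1/S (NP-40 vs SDS abundance) is given: HeLa Kyoto cells arrested at G1/S by double thymidine block, proteins quantified by TMT10plex mass spectrometry in mild NP-40 versus SDS extracts, three biological replicates.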
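Wherever thermal stability score vs G1/S (z-score of summed log2 fold changes over temperatures) is given: synchronized HeLa Kyoto cells, proteins quantified by TMT10plex mass spectrometry, three biological replicates, mitosis taken 0.5 h after nocodazole release, G1/S directly after double thymidine block.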

As to “MAQTLQMEIPNFGNSILECLNEQRLQGLYCDVSVVVKGHAFKAHRAVLAASSSYFRDLFNNSRSAVVELPAAVQPQSFQQILSFCYTGRLSMNVGDQFLLMYTAGFLQIQEIMEKGTEFFLKVSSPSCDSQGLHAEEAPSSEPQSPVAQTSGWPACSTPLPLVSRVKTEQQESDSVQCMPVAKRLWDSGQKEAGGGGNGSRKMAKFSTPDLAANRPHQPPPPQQAPVVAAAQPAVAAGAGQPAGGVAAAGGVVSGPSTSERTSPGTSSAYTSDSPGSYHNEEDEEEDGGEEGMDEQYRQICNMYTMYSMMNVGQTAEKVEALPEQVAPESRNRIRVRQDLASLPAELINQIGNRCHPKLYDEGDPSEKLELVTGTNVYITRAQLMNCHVSAGTRHKVLLRRLLASFFDRNTLANSCGTGIRSSTNDPRRKPLDSRVLHAVKYYCQNFAPNFKESEMNAIAADMCTNARRVVRKSWMPKVKVLKAEDDAYTTFISETGKIEPDMMGVEHGFETASHEGEAGPSAEALQ [NACC1]”, the “solubility in G1/S (log2)” value in data set [1] stood at 0.142. Besides, the “solubility change mitosis (log2)” value in data set [2] was -0.176. The melting temperature is 47.6 °C in data set [3] (cell cycle stage: G1/S) and 49.4 °C in data set [3] (cell cycle stage: mitosis). Also, the thermal stability score was found to be 3.55 in data set [4] (setting [5]) and 6.42 in data set [4] (cell cycle stage: mitosis).

Take DYNC1H1: the “solubility in G1/S (log2)” value in data set [1] is -0.318. The “solubility change mitosis (log2)” value in data set [2] was -0.141. The results for the melting temperature in data set [3] (cell cycle stage: G1/S) and in data set [3] (cell cycle stage: mitosis) were 51.8 °C and 51.2 °C, respectively. For the same substance, the thermal stability score was 0.0561 in data set [4] (setting [5]) and 2.96 in data set [4] (cell cycle stage: mitosis).

Consider “MALTRPVRLFSLVTRLLLAPRRGLTVRSPDEPLPVVRIPVALQRQLEQRQSRRRNLPRPVLVRPGPLLVSARRPELNQPARLTLGRWERAPLASQGWKSRRARRDHFSIERAQQEAPAVRKLSSKGSFADLGLEPRVLHALQEAAPEVVQPTTVQSSTIPSLLRGRHVVCAAETGSGKTLSYLLPLLQRLLGQPSLDSLPIPAPRGLVLVPSRELAQQVRAVAQPLGRSLGLLVRDLEGGHGMRRIRLQLSRQPSADVLVATPGALWKALKSRLISLEQLSFLVLDEADTLLDESFLELVDYILEKSHIAEGPADLEDPFNPKAQLVLVGATFPEGVGQLLNKVASPDAVTTITSSKLHCIMPHVKQTFLRLKGADKVAELVHILKHRDRAERTGPSGTVLVFCNSSSTVNWLGYILDDHKIQHLRLQGQMPALMRVGIFQSFQKSSRDILLCTDIASRGLDSTGVELVVNYDFPPTLQDYIHRAGRVGRVGSEVPGTVISFVTHPWDVSLVQKIELAARRRRSLPGLASSVKEPLPQAT [DDX28]”, for which the “solubility in G1/S (log2)” value in data set [1] was -0.336. Moreover, the “solubility change mitosis (log2)” value in data set [2] came out at 0.0712. Also, the melting temperature in data set [3] (cell cycle stage: G1/S) was 50 °C; in data set [3] (cell cycle stage: mitosis), 50.9 °C. The thermal stability score is -0.0521 in data set [4] (setting [5]) and 1.54 in data set [4] (cell cycle stage: mitosis).

With “MSQWYELQQLDSKFLEQVHQLYDDSFPMEIRQYLAQWLEKQDWEHAANDVSFATIRFHDLLSQLDDQYSRFSLENNFLLQHNIRKSKRNLQDNFQEDPIQMSMIIYSCLKEERKILENAQRFNQAQSGNIQSTVMLDKQKELDSKVRNVKDKVMCIEHEIKSLEDLQDEYDFKCKTLQNREHETNGVAKSDQKQEQLLLKKMYLMLDNKRKEVVHKIIELLNVTELTQNALINDELVEWKRRQQSACIGGPPNACLDQLQNWFTIVAESLQQVRQQLKKLEELEQKYTYEHDPITKNKQVLWDRTFSLFQQLIQSSFVVERQPCMPTHPQRPLVLKTGVQFTVKLRLLVKLQELNYNLKVKVLFDKDVNERNTVKGFRKFNILGTHTKVMNMEESTNGSLAAEFRHLQLKEQKNAGTRTNEGPLIVTEELHSLSFETQLCQPGLVIDLETTSLPVVVISNVSQLPSGWASILWYNMLVAEPRNLSFFLTPPCARWAQLSEVLSWQFSSVTKRGLNVDQLNMLGEKLLGPNASPDGLIPWTRFCKENINDKNFPFWLWIESILELIKKHLLPLWNDGCIMGFISKERERALLKDQQPGTFLLRFSESSREGAITFTWVERSQNGGEPDFHAVEPYTKKELSAVTFPDIIRNYKVMAAENIPENPLKYLYPNIDKDHAFGKYYSRPKEAPEPMELDGPKGTGYIKTELISVSEVHPSRLQTTDNLLPMSPEEFDEVSRIVGSVEFDSMMNTV [STAT1]”, the “solubility in G1/S (log2)” value in data set [1] came out at 0.104. The “solubility change mitosis (log2)” value in data set [2] was -0.17. Also, the melting temperature in data set [3] (cell cycle stage: G1/S) turned out to be 47.7 °C; in data set [3] (cell cycle stage: mitosis), 48.5 °C. Moreover, the thermal stability score in data set [4] (setting [5]) turned out to be 1.15; in data set [4] (cell cycle stage: mitosis) it was 3.11.

As to RSBN1L, the “solubility in G1/S (log2)” value in data set [1] is -0.468. For the same substance, in data set [2], the “solubility change mitosis (log2)” value came out at 0.0823. Moreover, the melting temperature in data set [3] (cell cycle stage: G1/S) stood at 54.7 °C; in data set [3] (cell cycle stage: mitosis), 53.4 °C. Also, the thermal stability score in data set [4] (setting [5]) is -0.891; in data set [4] (cell cycle stage: mitosis), -3.56.

In the case of CELSR2, the “solubility in G1/S (log2)” value in data set [1] worked out at 0.141. In addition, the “solubility change mitosis (log2)” value in data set [2] was -0.142. The melting temperature was found to be 56.8 °C in data set [3] (cell cycle stage: G1/S) and 54.6 °C in data set [3] (cell cycle stage: mitosis). The thermal stability score is -4.5 in data set [4] (setting [5]) and -5.14 in data set [4] (cell cycle stage: mitosis).
